A short description of the data set: label from the status in PepcDB records.
On to “SPEPYPPLVIETPAMEAAVTALIDRVFGPGRFAKSSERLREGNTLLADCSFVSLRDGAPVGCVRMWPVTIGGEPVAFLGPLAVDPDERSAGLGQALVEAACEAARAAGWRAVLLVGDGPYFGRVGFTNAHTAGVIMPGPVDQRRVLLLPLRDGG”, for which the protein production entry is “failed”.

Regarding “SQPLLDRSIPDFTAFTTVDDWLSAIKMVQYRDSFLTAGFTSLQLVTQMTSEDLLRIGITLAGHQKKILNSIHSMRVQISQSPTAMA”, the protein production result is on record as “not failed”. With “SRRRRSGTEPEKIEPGEGASRSRRDMLKDGGQQGLGTGARDPDKATRFRMEELRLTSTTFALTGDSAHNQAMVHWSGHNSSVILILTKLYDYNLGSITESSLWRSTDYGTTYEKLNDKVGLKTILSYLYVCPTNKRKIMLLTDPEIESSLLISSDEGATYQKYRLNFYIQSLLFHPKQEDWILAYSQDQKLYSSAEFGRRWQLIQESVVPNRFYWSVMGSSKEPDLVHLEARTVDGHSIYLTCRMQNCTEANRNKPFPGYIDPDSLIVQDDYVFVQLTSGGRPHYYVSYRRSPFAQMKLPKYALPKDMHVISTDENQVFAAVQEWNQNDTYNLYISDTRGVYFTLALENVQSSRGPEGNVMIDLYEVAGIKGMFLANKKIDNQVKTFITYNKGRDWRLLQAPDADLRGDPVHCLLPYCSLHLHLKVSENPYTSGIIASRDTAPSIIVASGNIGSELSDSDISMFVSSDAGNTWRQIFEEEHSILYLDQGGVLVAMKHTSLPIRHLWLSFDEGRSWSKYSFTSIPLFVDGVLGEPGEETLIMTVFGHFSHRSEWQLVKVDYKSIFDRRCAEEDYRPWQLHSQGEACIMGAKRIYKKRKSERKCMQGKYAGAMESEPCVCTEADFDCDYGYERHSNGQCLPAFWFNPSSLSKDCSLGQSYLNSTGYRKVVSNNCTDGVREQYTAKPQKCP”, the protein production entry was “not failed”. In the case of “SRVLSRMSGTIRHFQAITLALSRERDLERMLDGVLSHLVEAAGGDAGGVYLYDAEQALLRLAASCRGEHYPSELAVDESARQHLAATVTQALSLHERSLAVVLNDRSQALLGILVLQMGEEQAQERVGEAFRRFVEELSGVAAVAIETRQLVEAQQRLLDA” it was “failed”; in that of “SSEDLAKQLASYKAQLQQVEAALSGNGENEDLLKLKKDLQEVIELTKDLLSTQPSETLASSDSFASTQPTHSWKVGDKCMAVWSEDGQCYEAEIEEIDEENGTAAITFAGYGNAEVTPLLNLKPVEEGRKAKEDSGNKPMSKKEMIAQQREYKKKKALKKAQRIKELEQEREDQKVKWQQFNNRAYSKNKKGQVKRSIFASPESVTGKVGVGTCGIADKPMTQYQDTSKYNVRHLMPQ”, “failed”; in that of “SSEQIRRAPKVLLHDHLDGGLRPGTIVELARDAGYSGLPETDPDKLGIWFREAADSGSLERYLETFAHTCAVMQTRAALVRVAAECAEDLAADGVVYAEVRYAPEQHLEAGLSLEEVVEAVNEGFRAGERRAKEDGNRIRVGALLTAMRHAARALEIAELANRYRDAGVVGFDIAGAEAGFPPTRHLDAFEYLKRENNHFTIHAGEAFGLPSIWQALQWCGADRLGHGVRIIDDIQVREDGSVKLGRLASYVRDKRIPLELCPSSNLQTGAASSYADHPIGLLRRLHFRATVNTDNRLMSGTSMSREFEHLVDAFGYTLDDMAWFSVNAMKSAFIPFDERLAMINDV”, “failed”. For the sequence “SSLRPSPRLLCTATKQKNSGQNLEEDMGQSEQKADPPATEKTLLEEKVKLEEQLKETVEKYKRALADTENLRQRSQKLVEEAKLYGIQAFCKDLLEVADVLEKATQCVPKEEIKDDNPHLKNLYEGLVMTEVQIQKVFTKHGLLKLNPVGAKFDPYEHEALFHTPVEGKEPGTVALVSKVGYKLHGRTLRPALVGVVKEA”, the protein production entry is recorded as “failed”. For the sequence “SSPFPIPNTQYPISNPQFNRWLVPMAGGPNARIAIKLLPALVTLSDDPQIRLTRVFKPWEFRPDMTVLEQAIRQLMRRRQLSSTVIAAPVQADSVVEGVIKLVETEGYDVVVLGASREGLLQQAIQGNIPEAIASGVDSTVILVR”, the protein production entry is on record as “failed”.

On to “SSSDIAYIYVNNKKSYLKDKKVRQALTYGLDRKKYVDTALQGYGSVANVPIAPVSWAYTEEGINKYPHDVEKAKKLLDEAGWKVGSDGVREKDGQKLKLTYYASNTGKTNDIFIPIAKESYKEIGVELNPELMDFNTMLSKVGKGDYDLAAVSTPGISDPSEVVSDYLSTNPKSDTGYSNPKVDDLIVKGIGTTDIEKRKAIYKELYKELSDDPPVILLNYRK”, for which the protein production entry was “failed”. In the case of “STGKKPKHHVLSHDIIPASKPIAEKLQIQPESPVVELKRILYNDDQPLTFEVTHYPLDLFPGIDTFIADGVSMHDILKQQYKVVPTHNTKLLNVVYAQQEESKYLDCDIGDALFEIDKTAFTSNDQPIYCSLFLMHTNRVTFTINSPYT” it was “not failed”; in that of “STISILATSDIHGNVLNYDYATGKAPTNTQGLAKVSSYVNSVRASKPNVMLIDDGDTIQGTPLSYYYDKIDTTSEYPLMKIMGAMKYDTWTLGNHEFNYGLPTLNRVISDARKENINVLSANTYNSDNTNFVNPYYIKTFNINGKTVNVGILGLTTKCIPDWEDPSHYAGLHFNDLVDEAKLWVPRMKAAGANVVIVAAHSGEEGAADTIPENQIKAIATNVSGIDAIVAGHAHVTVNDTSLKNPNGKTVPVVEPNKWGTFVSQIDITLDNSGNASTINTQNVKMTDSIPEDPNIVNIIQPYQNKTLDYIST”, “failed”.

For “STSPEIASLSWGQMKVKGSNTTYKDCKVWPGGSRTWDWRETGTEHSPGVQPADVKEVVEKGVQTLVIGRGMSEALKVPSSTVEYLKKHGIDVRVLQTEQAVKEYNALVAQGVRVGGVFHSTC”, the protein production entry is “not failed”. Next, “SVDLAHIRQVRAEADCLFNNDEVEAAIGRVAEAINRDLGETNPVVFCVMNGGLIFSGKLLPLLDFPLELSYLHATRYRNETSGGELFWKAKPEISFIDRDVLIIDDILDEGHTLSAIIDFCKHAGARAVHTAVLVDKEHERKARPDLKASFTGLYCADRYVFGYGMDYKGYWRNA”: “failed”; “SVNAATVDLRIMETTDLHSNMMDFDYYKDAATEKFGLVRTASLIEQARAEVKNSVLVDNGDVIQGSPLGDYMAAKGLKEGDVHPVYKAMNTLNYAVGNLGNHEFNYGLDFLHKALAGAKFPYVNANIIDAKTGKPMFTPYLIQDTRVVDSDGQIHTLRIGYIGFVPPQIMTWDKANLNGKVTVNDITETARKYIPEMRAKGADVVVVVAHSGLSADPYQAMAENSVYYLSQVPGVDAIMFGHAHAVFPGKDFANIKGADIAKGTLNGVPAVMPGMWGDHLGVVDLVLNNDSGKWQVTQSKAEARPIYDAVAKKSLAAEDGKLVSVLKADHDATREFVSK”: “not failed”.

Turning to “SWLYGKSDARWTITEYADLECPYCRTYTPQLMQWIDGQTDVNLVWHHFPLQMHGAATLKEARLVQCAGKLGGGKAFWNAIDQVLKHTRGDGQGLVTSIALSGIDAVVLDRCATLDADVALHVDQQLQLAQQAGVTATPTIKITDTQTRHSVRLEGPVDEVSILSAMDRLAFESK”, the protein production result was “failed”.

As for “SYETSQHNLDAVEAVLSRLQKQTGEMAAYMVPVGYRALCVSQRESMQALRCSFVQGQSQPLLRGASSKVMLAYMPAARCEKILRYFGEDPTLDKWQSEFEKIRRHGYAVSTSEIDPGVSGISAPVMKGSKLIGAISVMAPAHRVESNKQRIILHVLQAARAL”, the protein production result is on record as “not failed”. Consider “SYTEVRELVNFVCRYLFGHIPRRPVGIFGAELGNYLVSHFSSTWDVHHPKNGEMKRMINTTTSLCFASSAEEAGVPPSDVLRLLPTNMIIFANPGHVFVRLSENGIETPIWIGDVNCDENYQSVPEYVVRTAAIRAEPCSNLGAAGKSVLVGKKPLLTNDKAALEMVNTMYSPLAREKCDDINANLSHLREMYPFRFVYKPSSAQTFSGVEFSQTRFGSSKSRPDLQTMDVIKYLSSQQVSSSSSPSFTYSSINDQMRYSPRF”, for which the protein production result is reported as “not failed”. In the case of “SYTFDTTDHKSPCCNFQWYIFRKQGESRIITCELFGVIVSLENRWDWLEFMIDDSLQLTAFRCPKRDKLGMETLLQLGDVAQVTGNWKLSNGAFLNATKIAIHNNPDVECKYWLQQIQKYKSKVCELEIPSDWIRRQQRAHNLKTDAVLSFSAQVSTAAATCWKLWKKHFNQGGKISLQRLWEVIQRENCPKMQELSSCRRNQIVQLLIHLGYLIPLSKEPETYVLLIDDILDKQVMQIFNQNIASKTLSLREVAYRLEEYFHVEEISLERVEESILRLAYKEKVEQV” it was “not failed”. In the case of “TAANAVASRVGAPLGHDYAVLSLSDRLKPWDVVAQRISAVASADMAFAVYNPASKSRTWQVAAMRDLVLEHRSPDTPVIIGRDVAGAQESVRVVRLADLDPAEIDMRCLLIVGSSMTTVVENEHGTRVFTPRRYPG” it was “failed”; in that of “TACKGDYKDAARQVRCGTLVVDETRGDPKSRRITVAVAIVKASEPKAGQPPVVYLHGGPGGSAVGGLPRMLKSKAALEYVAVDQDWIFIDQRGGGQSDPNLDCPGANLTDAGPPSDKDAQAIIACMKAFQAKGVNLSRYNAVEVAKDVQDLRKLLKLPLIDLYGGSYGTRIEAAIQTHAAEGVRAVVQDSPWPPEADWTVGGPAMVSSSIDIVMAKCAKVAECAKRYPDLKAKLAVVAERWLAGPQTINGKTYTADDLGGWLMDASYFTASVLPRDLWKIIEGDVSPVAEFVESRDYYSEGQFMTHLCKEEIPFEARAAVADGTQKDPIARLMVASMQRIHDVCAAIDVGPINKVEQAPVKTAIPTLFLAAEIDPGCPPELTRAAAKGYQGSQVVIVTNATHGVSRSSPCVRKMIRSFFQDPTKPVDRSCLPAADTPMAFMYQ”, “failed”; in that of “TAEEVVTVALRCPSGNVLRRRFLKSYSSQVLFDWMTRIGYHISLYSLSTSFPRRPLAVEGGQSLEDIGITVDTVLILEEKE”, “failed”. Next, “TDGEGEDPAEYPTVNHKIEKAIEVTKTGLEEYENPVVMWTGGKDSTLTLYFVKEVAERFDLEVPPVVFIDHYQHFDELIDFVEHWADEWDLDVIWARNEDVGNYVDENGLEPGDDIPVDELSEHNQHHIRNILEYEEDTFPFLLDTYVGNHLLKTVALNDTIEEHDVDGILSGIRWDEQESRADETFFSPRHDPDIYPPHDRIQSILQFAEADVWEAFWNFVVPDTVEGYPDEGYVPQGQDDLPEGIEKEDVPVSPKYFAGFRSLGSE”: “failed”; “TDLPMPRVTVFALWEPLAIMRELWAEGGIGPGRLAVMDRVKGPKTGLLMRHQDKPGGVAFVAIHDGVAMLHALEIPPHQRRKGLGKWAMRGAAFWALDNGAHTLSVICTKANEGANALYRSLGMQLVGEYHYRLLQE”: “failed”. “TELQAVTGRAEIAGERLKLLYDAGLGIGTTLDVLRTADELAQVAVPRFADFVTVDLADAVLHGEEPAPTATDLRRTAVCGIRDDHPLYELGQLIDFLPSTPQARGYGSGYSELVTDLSTATGWHAQDPERTKAIIDYGIHSLIAAPIQARGVVLGMANFWRSKQHEPFVEEEMSLAEELVARAAVSIDNARRYTREHALAVTLQRSLLPRALP”: the protein production entry is listed as “failed”. Next, “TGEREYIKKLEPMLKELGWWGKAKDENGNEVQLGSPRRLRTILRTNKITAYHAARYAQQMENVDEQPYWRYVAVNDSRTRASHLALHGKIYRADDPIWQTMYPPNDWGCRCRVEALS”: “failed”; “THSETITIPVFDTQVAGTLLTPRAKLPGVLFVHGWGGSQRFDLSRARDIAGLGCICLTFDLRGHAATEAQRRQVTREDSLRDIMAAYDALIAHPAVDTSAIAVVGSSYGGYLAAILTTLRAVRWLALHVPALYRDDEWAQPKLQLDRAAISAYRHATVAPEGNRALSACSSFRGDVLIVEAEHDDYIPHSTIMSYRGAFLHSHSLTHRIVDGADHALSDKRCQQAYSSILLNWATEMV”: “failed”.

The record behind these values is a protein production outcome set (Wang et al. 2014).
